Source: PMC5358875 (Journal of the American Chemical Society, 2017)
Values belong to the molecule of their own block, whether it stands above or below them. Ends that are not written are not given here. * marks the point of attachment. 5‑TAMRA = CN(C)c1ccc2c(-c3ccc(C(=O)*)cc3C(=O)[O-])c3ccc(N(C)C)cc3[o+]c2c1; Ahx = NCCCCCC(=O)O

Columns and labels:
[1] = system: Wnt-activated HEK 293T cells; assay: TOPFLASH dual-luciferase reporter assay; format: cell-based; conditions: unlabeled peptides
Method: A dual-luciferase reporter (DLR) assay in Wnt-activated HEK 293T cells was used to determine the ability of the peptides to modulate β-catenin levels and suppress Wnt transcription. […] Treatment of HEK 293T cells with an increasing concentration of unlabeled peptide cp4n2m3c-Antp (containing the penetratin sequence on the linker) led to a dose-dependent decrease in Wnt pathway reporter activity with an IC50 around 50 μM (Figure 8). […] Moreover, treatment with non-cell-penetrating peptides pep1 or cp4n2m3c had no effect on Wnt reporter activity, nor did treatment with cp4n1m3c-Antp (a cell-penetrating version of the non-binding peptide cp4n1m3c) (Table S2), thereby satisfying these specificity controls.
HEK 293T were grown in Dulbecco’s Modified Eagles Medium (DMEM) supplemented with 10% fetal calf serum. Wnt pathway activity was induced by treating cells with 20 mM LiCl (or KCl as control) or conditioned media obtained from L-cells expressing Wnt3A for 6 h. […]
For TOPFLASH reporter assays, 100 ng of TOPFLASH plasmid and 10 ng of CMV-Renilla plasmid (as internal control) were used to transfect cells in 24-well plates. […] Relative luciferase values were obtained from triplicate samples (from two independent experiments) by dividing the firefly luciferase values (from TOPFLASH) by the Renilla luciferase values (from CMV-renilla), and standard deviations were calculated.

[2] = molecular target: T1, TNKS2 ARC4 (Homo sapiens, UniProt Q9H2K2); assay: Isothermal titration calorimetry, TNKS2 ARC4; format: binding; conditions: unlabeled peptides and Axin proteins
T1 construct: GST (cleaved yes); made in house; host or cells: E. coli C41(DE3)
T1 sequence (Q9H2K2 488-649): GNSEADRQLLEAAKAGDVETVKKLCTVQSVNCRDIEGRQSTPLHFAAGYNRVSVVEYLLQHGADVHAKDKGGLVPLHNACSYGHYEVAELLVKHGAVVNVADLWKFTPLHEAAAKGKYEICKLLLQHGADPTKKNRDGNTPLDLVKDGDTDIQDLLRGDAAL
Method: (§1) All ITC experiments were performed on a MicroCal iTC200 (GE Healthcare) at 25 °C. TNKS2 ARC4 (488–649), TNKS1 ARC2–3 (315–662), and Axin1 fragments were dialyzed overnight in PBS and 0.5 mM TCEP. Unlabeled peptides were used in the experiments. The peptide was diluted from the stock solution using the same dialysis buffer, and the effect of buffer dilution was accounted for when preparing TNKS samples. TNKS2 ARC4 (160–280 μM) or TNKS1 ARC2–3 (60–150 μM) was titrated into the sample cell containing the peptide (5–15 μM) or Axin1 fragments (8–12 μM) with an initial injection of 0.2 μL over 0.4 s followed by 19 injections of 2 μL over 4 s with a spacing of 60 s, except for TNKS2 ARC4 and Axin1 fragments for which the spacing was 70 s. Control experiments were performed using the same settings as above except that the cell was filled with dialysis buffer. Data were fitted with nonlinear regression using a one-site binding model from Origin 7.0 (MicroCal, Inc.).[90]

[3] = molecular target: T2, TNKS1 ARC2-3 (Homo sapiens, UniProt O95271); assay: Isothermal titration calorimetry, TNKS1 ARC2-3; format: binding; conditions: unlabeled peptides and Axin proteins
T2 construct: His6 (cleaved yes); made in house; host or cells: E. coli C41(DE3)
T2 sequence (O95271 315-662): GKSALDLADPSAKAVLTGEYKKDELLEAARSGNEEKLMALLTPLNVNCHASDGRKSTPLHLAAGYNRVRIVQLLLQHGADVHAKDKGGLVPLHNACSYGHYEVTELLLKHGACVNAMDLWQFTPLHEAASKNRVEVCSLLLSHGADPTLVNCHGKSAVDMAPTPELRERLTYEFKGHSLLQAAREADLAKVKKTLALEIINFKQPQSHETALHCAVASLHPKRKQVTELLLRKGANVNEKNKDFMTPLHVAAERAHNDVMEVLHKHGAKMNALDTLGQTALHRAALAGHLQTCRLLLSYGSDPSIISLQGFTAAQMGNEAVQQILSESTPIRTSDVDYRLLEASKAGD
Method: as §1

[4] = molecular target: T3, AspN protease (Elizabethkingia meningoseptica, UniProt Q47899); assay: in vitro; conditions: isolated enzyme
T3 sequence (Q47899 92-443): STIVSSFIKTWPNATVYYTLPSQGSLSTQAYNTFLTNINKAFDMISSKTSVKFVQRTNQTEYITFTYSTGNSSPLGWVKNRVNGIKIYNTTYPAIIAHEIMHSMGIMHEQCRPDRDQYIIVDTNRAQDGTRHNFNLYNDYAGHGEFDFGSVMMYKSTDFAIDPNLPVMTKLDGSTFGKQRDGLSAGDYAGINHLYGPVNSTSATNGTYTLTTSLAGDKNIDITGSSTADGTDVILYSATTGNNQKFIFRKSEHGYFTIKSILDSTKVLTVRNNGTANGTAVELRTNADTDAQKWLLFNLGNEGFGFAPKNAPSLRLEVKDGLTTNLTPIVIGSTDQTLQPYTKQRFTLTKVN

[5] = molecular target: T1, TNKS2 ARC4; assay: Direct fluorescence polarization, TNKS2 ARC4; format: binding; conditions: TAMRA-labeled peptides; n.d. = not detectable; read-out: Kd TNKS2 ARC4 (Direct FP)
Method: Fluorescence polarization (FP) assays were performed in 96-well half area black microplates (Corning) on a CLARIOstar microplate reader (BMG labtech) using excitation filter 540–20 nm, dichroic mirror LP 566 nm, and emission filter 590–20 nm. All peptides were dissolved in water as stock solutions. For direct FP assays, the stock concentrations of the TAMRA-labeled peptides were determined based on the 5-TAMRA absorbance at 556 nm (extinction coefficient ε = 89,000 M^–1 cm^–1) measured on a NanoDrop 2000 (Thermo Scientific) and verified by amino acid analysis (Department of Biochemistry, University of Cambridge). TNKS2 ARC4 (488–649) or TNKS1 ARC2–3 (315–662) was diluted 2-fold serially in the assay buffer (50 mM HEPES pH 7.5, 300 mM NaCl, 2 mM DTT, 0.05% (v/v) Tween 20) for a 12-point titration curve in triplicate. The diluted TAMRA-labeled peptide (20 nM, 50 μL) was mixed with the serially diluted TNKS2 ARC4 or TNKS1 ARC2–3 (40–0 μM, 50 μL) in each well and incubated for 30 min at 25 °C before the measurement. Data were analyzed on GraphPad Prism 5.0, and the dissociation constant, Kd, was determined using the following equation assuming the ratio between the concentration of the bound and that of the total TAMRA-labeled peptide is proportional to the fluorescence polarization [drawing 1] where FP is the fluorescence polarization, B is the minimum FP, T is the maximum FP, L0 is the total concentration of TAMRA-labeled peptide, P0 is the total concentration of protein, and Kd is the dissociation constant.

[6] = molecular target: T4, human tankyrase 1 ankyrin repeat clusters 2-3 (TNKS1 ARC2-3, residues 315-662) (human, UniProt O95271 315-662); assay: ITC; TNKS2 ARC4 (160-280 uM) or TNKS1 ARC2-3 (60-150 uM) titrated into the cell with unlabeled peptide (5-15 uM) or Axin1 fragment (8-12 uM); PBS, 0.5 mM TCEP; 25 C; one-site model; stoichiometry = TNKS per peptide or Axin1; conditions: both partners purified
T4 sequence (looked up): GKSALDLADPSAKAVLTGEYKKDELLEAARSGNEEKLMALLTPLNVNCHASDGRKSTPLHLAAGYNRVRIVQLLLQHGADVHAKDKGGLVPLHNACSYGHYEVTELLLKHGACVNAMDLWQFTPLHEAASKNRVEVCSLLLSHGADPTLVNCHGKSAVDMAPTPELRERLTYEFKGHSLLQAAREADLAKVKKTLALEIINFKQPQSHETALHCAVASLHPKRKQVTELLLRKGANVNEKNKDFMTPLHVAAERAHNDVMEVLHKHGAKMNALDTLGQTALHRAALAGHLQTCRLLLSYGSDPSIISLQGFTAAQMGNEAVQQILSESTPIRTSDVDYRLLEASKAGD

[7] = molecular target: T5, human tankyrase 2 ankyrin repeat cluster 4 (TNKS2 ARC4, residues 488-649) (human, UniProt Q9H2K2 488-649); assay: as above; conditions: both partners purified
T5 sequence (looked up): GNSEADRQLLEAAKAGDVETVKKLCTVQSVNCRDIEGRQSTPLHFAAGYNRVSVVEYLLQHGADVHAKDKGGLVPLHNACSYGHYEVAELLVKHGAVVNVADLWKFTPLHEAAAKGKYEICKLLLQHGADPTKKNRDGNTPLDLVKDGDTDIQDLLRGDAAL

[8] = molecular target: T5, human tankyrase 2 ankyrin repeat …; assay: fluorescence polarisation; competition: unlabeled peptide or Axin1 fragment diluted 2-fold serially against TAMRA-labeled pep1 (20 nM) with TNKS2 ARC4 (3 uM); PBS, 0.05% Tween 20; 30 min, 25 C; conditions: both partners purified
[9] = molecular target: T4, human tankyrase 1 ankyrin repeat …; assay: fluorescence polarisation; competition: Axin1 fragment diluted 2-fold serially against TAMRA-labeled pep1 (20 nM) with TNKS1 ARC2-3 (1.2 uM); PBS, 0.05% Tween 20; 30 min, 25 C; conditions: both partners purified
[10] = molecular target: T6, TNKS2 ARC4 (488–649) (human, UniProt Q9H2K2 488-649); assay: fluorescence polarisation; direct FP; TAMRA-labeled peptide (20 nM, 50 μL) mixed with serially diluted TNKS2 ARC4 (40–0 μM, 50 μL); 50 mM HEPES pH 7.5, 300 mM NaCl, 2 mM DTT, 0.05% Tween 20; 30 min at 25 °C; conditions: both partners purified
T6 sequence (looked up): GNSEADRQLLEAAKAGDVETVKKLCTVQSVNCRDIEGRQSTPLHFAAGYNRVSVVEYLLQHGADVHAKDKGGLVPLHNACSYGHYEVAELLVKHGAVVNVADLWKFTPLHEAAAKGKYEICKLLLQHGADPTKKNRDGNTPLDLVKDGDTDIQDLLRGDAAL

[11] = molecular target: T6, TNKS2 ARC4 (488–649); assay: fluorescence polarisation; competitive FP; T-pep1 (20 nM) with TNKS2 ARC4 (3 μM) as tracer, unlabeled peptide serially diluted; PBS, 0.05% Tween 20; 30 min at 25 °C; conditions: both partners purified
[12] = molecular target: T6, TNKS2 ARC4 (488–649); assay: pull-down; GST-Axin1 1–80 on glutathione beads incubated with TNKS2 ARC4 (89 μM), washed, then incubated 0.5 h at room temperature with unlabeled peptide (0–200 μM); wash buffer 50 mM Tris·HCl pH 8.0, 500 mM NaCl, 2 mM DTT; SDS-PAGE, Coomassie, densitometry; conditions: both partners purified

Stoichiometry (ITC), TNKS2 ARC4 [2]: 1.0 ± 0.004
Stoichiometry (ITC), TNKS1 ARC2-3 [3]: 0.9 ± 0.01
Kd ([3]; 25 °C, read-out: Kd (nM) to TNKS1 ARC2-3 (ITC)): 290 ± 30 nM
Molecule: Ac-REAGDGEE-NH2 [pep1]
effect on Wnt reporter activity [1]: no effect

Molecule: CN(C)c1ccc2c(c1)Oc1cc(N(C)C)ccc1C21OC(=O)c2cc(C(=O)NCCCCCC(=O)N[C@@H](CCCNC(=N)N)C(=O)N[C@@H](CCC(=O)O)C(=O)N[C@H]3CCn4cc(nn4)CCCc4cn(nn4)CC[C@@H](C(=O)N[C@@H](CCC(=O)O)C(N)=O)NC(=O)CNC(=O)[C@H](CC(=O)O)NC(=O)CNC3=O)ccc21 [T-cp4n2m3]
remaining at 4.5 h, 400 μM [4]: ~100%
Kd [5]: 600 ± 10 nM

Kd [6]: 830 ± 80 nM
stoichiometry N [6]: 1 ± 0.01
Kd [7]: 2120 ± 160 nM
stoichiometry N [7]: 1 ± 0.02
Kd [8]: 3680 ± 180 nM
Kd [9]: 560 ± 40 nM
Molecule: MNIQEQGFPLDLGASFTEDAPRPPVPGEEGELVSTDPRPASYS (domain or fragment, UniProt O15169 1-43, looked up) [human Axin1 residues 1-43]

Kd [10]: 800 ± 100 nM
Molecule: {5‑TAMRA-Ahx}-REAGDGEE [T-pep1 (TAMRA-Ahx-REAGDGEE)]

Kd [11]: 1200 ± 100 nM
IC50 [12]: ~40000 nM
Molecule: Ac-REAGDGEE [pep1]
